B1: CD209c (protein)
chain: MRMHTRLQFLKRVSNVAYSHGQEQAKKEKVYKEMTQLKSQINRLCRPCPWDWTVFQGNCYFFSKFQQNWNDSVNACRKLDAQLVVIKSDDEQSFLQQTSKEKGYAWMGLSDLKHEGRWHWVDGSHLLFSFMKYWNKGEPNNEWEEDCAEFRGDGWNDAPCTIKKYWICKKSAMSCTEK
B2: Clec4g (protein)
chain: MNTGEYNKLGSAIEEVSRGQLGRWECYKQRLFFLVLALLVATVLWALILSTLLSSASSKLRVLLSHQDLLRTNASEQKMTLSSLKDDIGACRNCCSVTKAQLQTTLAEFKDIQAKLMEQESILKELQERVTQDLAKASRDRENIRSELFQALEAVKRQNSSCEQCPPSWLPFQGSCYYFSETQATWDTAQSYCGGQGAHLVIVRGLNEQGFLSQHTRGRGYWLGLRAVRHLNKIQGYRWVDGASLNFSHWNSGEPNDSRGHEDCIMMLHSGLWNDAPCTNERDGWICEKRSSCY

Biological target: Spike (SARS-CoV-2, UniProt P0DTC2)
Experiment: SPR

| Binder | Kd [nM] |
| --- | --- |
| B1 | 1000 |
| B2 | 1600 |

From publication PMC8420505 (2021)
